Measurements as given in the supplement of paper PMC12042874.
± gives the uncertainty stated by the source.

Assay: amyloid nucleation score (Sup35N fusion, yeast selection) (log enrichment); library NNK3; higher = more nucleation; inactive = no reads after selection
In short: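 Sup35N fusions to peptides of 20 random codons were expressed in psi-negative yeast, induced 24 hours with 100 μM copper sulfate, and grown 7 days at 30°C on medium lacking adenine and uracil. Input and output plasmid inserts were sequenced by Illumina. The nucleation score is the DiMSum log enrichment of output over input reads, centred on the mode score of non-aggregating sequences. Sequences with under 100 input reads were excluded.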

Sequence	amyloid nucleation score
YSIDMHVNVHGTYYLMSKWV	1.73 ± 0.12
NYFQFLKENFVARNKESRRG	inactive
GQPTICKDGYSMLLNEFSRS	inactive
LFTSFYVSPYM	inactive
SYLQQLDLSRDGTVLLKSGI	inactive
RCKIENVIYM	2.44 ± 0.058
QCKHSPGWAWRNSTNHCIAS	inactive
YPLLEPSRVLVVCDGKGGVP	inactive
RVLVHYEVGFSENSRWGSVD	0.481 ± 0.32
SFTRCWLNKREMKMYTFSAR	inactive
NIGNHYCRYNGWDMLNRGEL	inactive
KNERVWVSRWETFKLHCSRV	inactive
SPEPSVNRKHLVPLLPAAFE	inactive
FMYSFDLWYKRLNCLMMLVF	inactive
SLMDNVLSFHFVVANWNTLD	inactive
YWRELDSIQCNLFRGQPFNL	inactive
PFTACWVSVADNPYPSNKTG	inactive
GNIEGVRNVVALTMHVVNWV	2.2 ± 0.091
SDKRPWGFRNRDIYVIVGHR	inactive
LNYGSDLDSIYYSFTL	-0.896 ± 0.96
QQYSTAYYIHGFTKMVGVVA	0.298 ± 0.19

Sequence	amyloid nucleation score
NVANRGLLHMELSVNKDWAM	0.699 ± 0.16
YFVSVGRNKELRGLFTRLVV	inactive
SHGGYACTSLIMTLIPLLYM	inactive
QAVMKRAALVPTRTAKSLPS	inactive
RFGAGILRSSNQDSGFRVTG	inactive
FTAQRGSTCHPYVRKHEYI	inactive
RKFGWIRVAWCSKRIVYYSK	-0.324 ± 0.62
APFCVRGSWELRQVFRM	-0.13 ± 0.77
ARICVRAFKETCDYKLGCST	0.052 ± 0.66
AWHCLDYYRSGSVIDRRVGM	inactive
TFLELSIMYGRVTCNSLY	-0.259 ± 0.8
EGWIRVFTEFNFSS	0.263 ± 0.46
LSFFGSYSSSRLF	1.43 ± 0.11
PMYVHRKDYKVVGSYMSTM	inactive
LFVIYISDIAPTGYQVQNDI	inactive
FYSCKSTAGCSTTIEGARNY	inactive
QYAAMATGNLYLS	inactive
TPTWFLRWWFTVSINNMVIW	inactive
KSMIAGVTMWLLCTVSLSYN	inactive
SLGLKIVVLESYGVSPVCCH	inactive
VCAVSFGRWYG	inactive

Sequence	amyloid nucleation score
TVNLDQMYYMVFCVFRSMHD	0.498 ± 0.43
EVPLDVAVKGRLW	inactive
TFLVALSYFVSLGYGSSQSM	inactive
SSGRSSPQWG	inactive
RRKKQFFFLFFSHRNLFFPV	2.18 ± 0.097
SSGYAFTGKVFYC	inactive
DSASLGLNLP	inactive
CDFALCSRWQVVYVKKQGQW	2.1 ± 0.07
VGRHAYRC	inactive
TNEIDLSEFMLQITLMLIRG	inactive
TVHSHKWCSLVGGPIRISWT	inactive
TYLLNGTILLNPCKLC	inactive
DAFIGYHYLGGLISGIWSSR	0.693 ± 0.097
CFLCFTPHSFHVCSI	inactive
DHYAWIFTDRLWYCRCNTVT	inactive
VAYNRGSQCCR	inactive
VKLALRTAFVGSQVYRILRA	-0.076 ± 0.88
WPDLQLLSSALPTPLQFSWL	inactive
LSMCAVFDRYLWVGSGDITY	inactive
SMSSTSYIGSSLVMIARNKF	inactive
CSCFYNNRIISSPMLLWLVQ	inactive
